# Source: patent publication US5614192A, “T cell receptor peptides as therapeutics for immune-related disease” (Connective Therapeutics, Inc., priority 1993, dated 1997)
# Several values for one entry are separate records, joined by “and”; a condition that tells them apart may be missing. Equal entries are not always repeated. Where two headings read alike, the source gives them in different places. Ends that are not written are not given here.
# B1: Rat BP: rat myelin basic protein (protein, UniProt P02688 2-195, looked up)
# Myelin basic protein: ASQKRPSQRHGSKYLATASTMDHARHGFLPRHRDTGILDSIGRFFSGDRGAPKRGSGKVPWLKQSRSPLPSHARSRPGLCHMYKDSHTRTTHYGSLPQKSQRTQDENPVVHFFKNIVTPRTPPPSQGKGRGLSLSRFSWGAEGQKPGFGYGGRASDYKSAHKGFKGAYDAQGTLSKIFKLGGRDSRSGSPMARR
# B2: GPBP: guinea pig basic protein, encephalitogen (protein, UniProt P25188 1-167, looked up)
# Myelin basic protein: ASQKRPSQRHGSKYLATASTMDHARHGFLPRHRDTGILDSIGRFFGSDRAAPKRGSGKDSHHAARTTHYGSLPQKSQRSQDENPVVHFFKNIVTPRTPPPSQGKGRGLSLSRFSWGAEGQKPGFGYGGRADYKSKGFKGAHDAQGTLSKIFKLGGRDSRSGSPMARR
# How the values were obtained:
# [1] = tested on: clone C455-69; experiment: Proliferation response of clone C455-69 to BP peptides (Table 28); type: cell-based, rat
# Experimental: Proliferation assays: Proliferation assays were performed in 96-well microtiter plates. 2×10^4 T cells and 10^6 irradiated thymocytes/well were incubated with stimulation medium only, ConA, or antigen at 37C in 7% CO2. The cultures were incubated for 72 h, the last 18 h in the presence of 0.5 Bq ^3 H-Tdr. The cells were harvested onto glass fiber filters and TCR uptake was assessed by liquid scintillation. Mean CPM wre calculated from triplicate wells. The standard deviation from replicate wells varied <10% from the mean values.
# the homologous RtBP sequence. Five μg/ml ConA or 50 μg/ml of each
# [2] = tested on: T cell immunity; experiment: T cell immunity / DH response induced by peptide; type: in vivo; settings: Lewis rats
# Text: Immunogenicity of peptides useful in the present invention can be screened by well-known methods, such as use of a DH response in an animal. In such a response, an animal is "sensitized" by injection of an appropriate dose of an antigen, typically subcutaneously (SC), frequently with an adjuvant, such as complete Freund's adjuvant (CFA). Generally about 5-15 days later, the response is "elicited" by challenging the animal, typically intradermally (ID), with an appropriate dose of the antigen, typically in saline or other buffer. The response is assessed 24-48 hours later. […]
# The desired peptides, with sequences determined as described above, are prepared using standard synthesis techniques including solution and solid phase sequential amino acid conjugation and recombinant production in prokaryotic or eukaryotic hosts. Verification that the peptide prepared is immunogenic can easily be determined using a DH reaction in an animal (e.g., mouse or rat), as described above. […] The ear swelling response, measured 24 or 48 hours after challenge, serves as a simple and reliable measure of the presence of T cell-mediated immunity to the peptide.
# [3] = tested on: lymph node cells and Vβ8-44-54 selected T cell line
# [4] = tested on: EAE; experiment: Prevention of EAE by immunization with TCR peptide (Example VI); type: in vivo, Lewis rats; settings: Lewis rats
# Text: EAE is a well-recognized rat model of the human autoimmune disease, multiple sclerosis. […] In this model, the disease is induced by injecting the subject rat with an encephalitogenic form of myelin basic protein, such as, for example, guinea pig basic protein (GPBP) or a synthetic peptide that corresponds to residues 72-89 of GPBP (GPBP(72-89)). Injection of either of these peptides in complete Freund's adjuvant (CFA) induces encephalitogenic T cell clones that utilize preferentially the rat homologs of mouse TCR Vα2 and Vβ8 genes (Chou, Y. K., et al., J. Neurosci. Res. 22:181-187 (1989); Burns, F. R., et al., J. Exp. Med. 169:27-39 (1989)).
# ^1 EAE was induced by SC challenge with 50 μg GPBP + 400 μg
# ^2 Rats were injected SC with either: (1) 100 μg of the TCR peptid
# ^3 Values represent the mean of the maximum severity of EAE. 0, no
# [5] = tested on: T cell lines derived from rats protected from EAE; experiment: Proliferation of LN cells and T cell lines from rats protected by TCR Vβ8 peptide (Table 12); type: cell-based, rat
# [6] = tested on: popliteal LN cells; experiment: Proliferation of LN cells after EAE induction and TCR peptide treatment (Table 23); type: cell-based, Lewis rats
# Experimental: The proliferative responses and specificity of T cells in the draining LN (popliteal) of rats treated with TCR Vβ8(39-59) peptide for EAE on day 13 after disease induction were examined (Table 23). On day 0, Lewis rats received an EAE-inducing regimen of GP-BP+CFA SC into their hind footpads. […] On day 20, about 7 days after onset of EAE, popliteal LNs were removed and T cell proliferative activity in response to the indicated antigens or mitogens were tested directly.
# Results are shown as net ^3 Hthymidine incorporation of 5 ×
# [7] = tested on: peptide-selected T cells; experiment: Proliferation of peptide-selected T cells after in vivo TCR peptide treatment (Table 24); type: cell-based, Lewis rats
# Text: LN cells from control rats responded best to Con A, PPD, GPBP and GPBP (72-89), and GPBP (45-89) (which includes the 72-89 sequence and another immunogenic but non-encephalitogenic peptide). […] LN cells from rats treated ID with the TCR peptide esponded similarly to the control cells, with the exception of a reduced response to GPBP (72-89). […] An aliquot of each of the above 3 groups of LN cells was stimulated in culture with either GPBP or with the TCR peptide for 3 days, and the cells expanded in IL-2 for 5 more days. The proliferative responses to the various antigens and mitogens of these selected T cells were examined, as above.
# [8] = tested on: LN cells and T cell lines; experiment: Proliferation of LN cells and lines from rats protected by transfer of TCR Vβ8 peptide-specific T cells (Table 15); type: cell-based, rat
# Experimental: ^1 Lymph node (LN) cells were collected 20 days after simultaneous
# ^2 LN cells were tested directly (NL column).
# ^3 T cell lines were selected from these LN cells by culture with TCR
# [9] = tested on: LNC and T cell lines; experiment: T cell proliferation after treatment of EAE with TCR Vβ8 39-59/CFA (Table 27); type: cell-based, rats
# Experimental: Lymphocyte Proliferation: Activation of T cells was measured by ^3 H-Tdy uptake. 500,000 lymph node cells or 20,000 line cells in the presence of 1 million irradiated thymic accessory cells were incubated with culture medium and antigens in microtiter wells for 18 hours prior to the addition of 0.5 μBq labeled thymidine. The cell cultures were harvested onto glass fiber filters and counted by liquid scintillation techniques. Mean CPM were calculated from triplicate cultures. Standard deviations (SD) from replicate cultures varied <10% from the mean value.
# ^a Treated rats were injected s.q. with 50 μg TCR Vβ839-59
# ^b LW cells collected after the untreated group recovered from EAE
# [10] = tested on: EAE; experiment: Prevention and suppression of EAE by immunization with TCR Vβ8(39-59) (Table 17); type: in vivo, Lewis rats; settings: antigen alone, day 0 (no TCR peptide)
# [11] = tested on: clones C372-89 and C455-69; experiment: Coculture of clones C372-89 and C455-69, proliferation (Table 31); type: cell-based, rat
# Experimental: 50 μg of antigen was added to 10,000 cells of each clone stimulated in […]
# [12] = tested on: EAE; experiment: Prevention, suppression and treatment of EAE with TCR Vβ8-39-59 peptide (Table 25); type: in vivo, Lewis rats; settings: GP-BP/CFA only
# [13] = tested on: DTH response; experiment: Delayed hypersensitivity responses to TCR peptides, ear swelling (Table 26); type: in vivo, Lewis rats
# [14] = 50 μg/ml peptide (5 μg/ml ConA), 20,000 clone C455-69 cells, 3 days
# [15] = 1st value column (head not given; LN cells of protected rats)
# [16] = 2nd value column (head not given, TCR Vβ8(39-59)-selected line)
# [17] = 4th value column (head not given; mixed TCR- and BP-specific T cells)
# [18] = Treated rats (TCR Vβ8 39-59/CFA at onset), LNC
# [19] = Untreated rats (GPBP/CFA only), LNC
# [20] = 50 μg antigen, 10,000 cells, 3 days
# [21] = A. TCR Vβ8 peptide-specific T cell transfer
molecule,measurement,setting,value
"APKRGSGKDSH HAARTTH (APKRGSGKDSHHAARTTH) [43-67, Gp-BP fragment 43-67 (printed from residue 50)]",Response CPM/1000 ± S.D.,[1]; [14],249 ± 12 CPM/1000
"KQNNNHNNMYWYRQDMG [Vβ8 (25-41), CDR1 peptide of TCR Vβ8]",induction of T cell immunity,[2],does not induce T cell immunity
same,Response of Lymph Node Cells,[3],14 ± 0
same,Response of T Cell Line,[3],6 ± 1
same,protection from EAE,[4],does not protect Lewis rats from EAE
"LRLIHYSYDVN [Vβ8-44-54, LRLIHYSYDVN]",inhibition of T cell response,[3]; 72 h,76%
SGKDSH HATRTTHYGSLPQK [55-74 modified],Response CPM/1000 ± S.D.,[1]; [14],150 ± 15 CPM/1000
APKRGSGKDSH HAARTTHYG (APKRGSGKDSHHAARTTHYG) [50-69],Response CPM/1000 ± S.D.,[1]; [14],277 ± 14 CPM/1000
"Concanavalin A [Con A, reference compound]",T Cell Proliferation,[5],99 and 96 and 80 and 123
same,Response CPM/1000 ± S.D.,[1],229 ± 15
same,T Cell Proliferation,[6],85 and 78 and 146
same,Response of Lymph Node Cells,[3],293 ± 39
same,"Response of T Cell Line, percent (in parentheses)",[3],88% and 93% and 106%
same,Proliferative response,[7],76 and 52 and 68 and 95
same,"Proliferation, TCR Peptide Selected Line",[8],46
B1,T Cell Proliferation,[5]; [15],11 cpm × 10^-3
same,T Cell Proliferation,[5]; [16],1 cpm × 10^-3
same,T Cell Proliferation,[5]; [17],9 cpm × 10^-3
same,T Cell Proliferation,[5]; GPBP-selected line,9 cpm × 10^-3
same,Response CPM/1000 ± S.D.,[1]; [14],0.2 ± 0.1 CPM/1000
same,Proliferative response,"[7]; day 13 inj. Control, selection with GPBP",46
same,Proliferative response,"[7]; day 13 inj. TCR Vβ 8(39-59) + CFA, selection with GPBP",14
same,Proliferative response,"[7]; day 13 inj. TCR Vβ 8(39-59) + CFA, selection with Vβ 8(39-59)",4
same,Proliferative response,"[7]; day 13 inj. TCR Vβ 8(39-59) ID, selection with CPBP (so in the source)",36
same,Proliferation,[9]; [18],49 ± 2 CPM/1000
same,Proliferation,"[9]; Treated rats, line BP/1st",14 ± 2 CPM/1000
same,Proliferation,"[9]; Treated rats, line Vβ8/1st",4 ± 1 CPM/1000
same,Proliferation,[9]; [19],40 ± 2 CPM/1000
same,Proliferation,"[9]; Untreated rats, line BP/1st",46 ± 3 CPM/1000
same,Proliferation,"[9]; Untreated rats, line Vβ8/1st",11 ± 4 CPM/1000
B2,T Cell Proliferation,[5]; [15],16 cpm × 10^-3
same,T Cell Proliferation,[5]; [16],3 cpm × 10^-3
same,T Cell Proliferation,[5]; [17],102 cpm × 10^-3
same,T Cell Proliferation,[5]; GPBP-selected line,93 cpm × 10^-3
same,Response CPM/1000 ± S.D.,[1]; [14],203 ± 7 CPM/1000
same,Clinical Score,[10],3.1 ± 0.6
same,"Proliferation, C372-89",[11]; [20],40 ± 3 CPM/1000
same,"Proliferation, C455-69",[11]; [20],50 ± 9 CPM/1000
same,"Proliferation, C372-89 + C455-69","[11]; coculture, 10,000 cells of each clone",91 ± 12 CPM/1000
same,Duration,[12],6.6 ± 0.9 days
same,EAE/TOTAL,[12],26/26
same,Max Clin. Signs,[12],3.4 ± 0.2
same,Onset,[12],12
same,T Cell Proliferation,[6]; LN cells day 20 of Control rats (saline day 13),49 cpm × 10^-3
same,T Cell Proliferation,[6]; LN cells of rats given TCR Vβ 8(39-59) 50 μg ID day 13,44 cpm × 10^-3
same,T Cell Proliferation,[6]; LN cells of rats given TCR Vβ 8(39-59) 100 μg SC (in CFA) day 13,50 cpm × 10^-3
same,"Proliferation, GPBP Selected Line",[8]; [21],16 cpm × 10^-3
same,"Proliferation, TCR Peptide Selected Line",[8]; [21],0 cpm × 10^-3
same,"Proliferation, LN","[8]; A. rats given 3 × 10^7 TCR Vβ8 peptide-specific T cells + GPBP/CFA, LN cells day 20",80 cpm × 10^-3
same,"Proliferation, GPBP Selected Line",[8]; B. Saline + GPBP/CFA,65 cpm × 10^-3
same,"Proliferation, LN",[8]; B. Saline + GPBP/CFA,32 cpm × 10^-3
same,net proliferation of reactive cells,[9]; GP-MBP-selected line from TCR peptide-treated rats,"12,000 CPM"
same,net proliferation of reactive cells,[9]; GP-MBP-selected line from untreated EAE-recovered rats,"84,000 CPM"
same,Proliferation,[9]; [18],50 ± 7 CPM/1000
same,Proliferation,"[9]; Treated rats, line BP/1st",29 ± 6 CPM/1000
same,Proliferation,"[9]; Treated rats, line Vβ8/1st",6 ± 1 CPM/1000
same,Proliferation,[9]; [19],49 ± 5 CPM/1000
same,Proliferation,"[9]; Untreated rats, line BP/1st",99 ± 9 CPM/1000
same,Proliferation,"[9]; Untreated rats, line Vβ8/1st",23 ± 2 CPM/1000
same,Proliferation,"[9]; Untreated rats, line Vβ14/1st",11 ± 1 CPM/1000
same,48 Hour DTH Response,"[13]; GP-BP/CFA immunized rats, ear test Day 12 (EAE onset)",35 ± 5
same,48 Hour DTH Response,"[13]; Normal or saline/CFA rats, ear test Day 12",5 ± 3
